Data: the emibetuzumab library of Makowski et al. (2022)

B1: VH:VL chains; a variant is named by its letters at X, in order (parent)
chain 1: QVQLVQSGAEVKKPGASVKVSCKASGYTFTDYXMHWVRQAPGQGLEWMGXVNPNXXXTTYNQKFEGRVTMTTDTSTSTAYMELRSLRSDDTAVYYCARXNXLDXWGQGTTVTVSS
chain 2: DIQMTQSPSSLSASVGDRVTITCSVSSSVSSIYLHWYQQKPGKAPKLLIYSTSNLASGVPSRFSGSGSGTDFTLTISSLQPEDFATYYCQVYSGYPLTFGGGTKVEIK

Variants of: B1
Assay: yeast display scFab, FACS + sequencing
How it was run: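 Heavy-chain CDR mutant scFab yeast surface library, FACS-sorted after labelling with biotinylated ovalbumin (260 μg/mL in PBSB, 3 h, room temperature) or soluble membrane proteins (130 μg/mL, 20 min on ice), plus anti-Myc. Gates collected the top 25% and bottom 10% of binders, and samples from two replicates were deep sequenced. Non-specific binding call: a sequence was positive if found in ≥3 of 4 positive samples (membrane protein and ovalbumin pooled) and no negatives, and negative by the converse rule.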

Variant	non-specific binding call
DAGGGDGA	no binding
FAGGGDGD	no binding
FAGGGDLV	no binding
DAGGGDVA	no binding
DAGGGDVV	no binding
FAGGGDVY	no binding
YAGGGDWA	no binding
DAGGGDWD	no binding
FAGGGDWV	no binding
DAGGGDWV	no binding
FAGGGFAV	binds
DAGGGSSD	no binding
DAGGGSSS	no binding
DAGGGYGV	no binding
DAGGGYSV	no binding
AAGGNAWS chain 1 G66S	no binding
FAGGSFAS	binds
YAGGTSSD	no binding
SAGKDDLA	no binding
YAGKDDWV	no binding
DAGKGAGD	no binding
VAGKGAGD	no binding
DAGKGALF	no binding

Variant	non-specific binding call
DAGKGAVV	no binding
DAGKGAVY	no binding
YAGKGAWV	binds
YAGKGFGA	binds
DAGKGSVD	no binding
VAGKGVLD	binds
YAGKNAVV	no binding
YAGKSAGD	no binding
DAGKSDWY	no binding
YAGKTAWS	binds
YAGKTSAD	binds
FAGRAAWA	binds
YAGRAAWD	binds
YAGRADVV	no binding
AAGRAYGA	binds
FAGRDAVV	binds
FAGRDVGV	binds
FAGRGALD	binds
YAGRGASA	no binding
DAGRGAVS	no binding
YAGRGDAD	no binding
YAGRGDAS	no binding
YAGRGDGA	no binding

Variant	non-specific binding call
DAGRGDGF	no binding
SAGRGDGS	no binding
DAGRGDGY	no binding
YAGRGDLA	no binding
YAGRGDLD	no binding
YAGRGDLV	no binding
YAGRGDSA	no binding
YAGRGDVD	no binding
YAGRGDVF	no binding
YAGRGDVS	no binding
YAGRGDVY	no binding
SAGRGDWD	no binding
YAGRGDWF	no binding
YAGRGFGA	binds
SAGRGFGF	binds
YAGRGFGF	binds
AAGRGFLD	no binding
VAGRGSAA	binds
SAGRGSAA	binds
FAGRGSAD	binds
YAGRGSAS	no binding
FAGRGSSD	binds
FAGRGVGD	binds

Variant	non-specific binding call
YAGRGVGD	binds
VAGRGVGD	binds
SAGRGVGS	binds
YAGRGVVD	binds
SAGRGYGD	binds
FAGRGYSD	binds
VAGRSDLV chain 1 R67H	no binding
DAGRSDLV chain 1 R67H	no binding
SAGRSDLV chain 1 R67H	no binding
AAGRSDLV chain 1 R67H	no binding
FAGRSDWV chain 1 R67H	no binding
VAGRSFGS	binds
YAGRSFGS	binds
YAGRTAGV	binds
DAGTAFSS	binds
VAGTDAGA	no binding
VAGTDAGD	no binding
DAGTDAGD	no binding
VAGTDDWV	no binding
DAGTGAGD	no binding
VAGTGASD	no binding
YAGTGAVA	no binding
VAGTGAVV	no binding

Variant	non-specific binding call
VAGTGDAA	no binding
VAGTGDGA	no binding
VAGTGDGV	no binding
DAGTGDGV	no binding
VAGTGDGY	no binding
VAGTGDLA	no binding
YAGTGDLV	no binding
VAGTGDLY	no binding
VAGTGDVA	no binding
VAGTGDVF	no binding
VAGTGDVY	no binding
VAGTGDWA	no binding
VAGTGDWD	no binding
VAGTGDWF	no binding
VAGTGDWV	no binding
VAGTGDWY	no binding
YAGTGFVD	binds
VAGTGFWV	binds
YAGTGFWV	binds
VAGTGSAD	no binding
